This is an account of results in patent US7271238.

The target of the assay is amylin receptors (rat basal forebrain membranes, containing the nucleus accumbens and surrounding regions) (rat). Description: competition radioligand binding, displacement of 125I-rat amylin from rat basal forebrain membranes.

Molecule 28Pro-human-Amylin (peptide) returned a concentration for half-maximal inhibition (IC50) of 15 pM.

B1: 25,28,29Pro-h-Amylin (peptide)
peptide: KCNTATCATQRLANFLVHSSNNFGPILPPTNVGSNTY
modifications: 2,7-disulfide; made on methylbenzhydrylamine resin (C-terminal amide not spelled out)
B1 gave a half-inhibitory concentration (IC50) of 10 pM.

By IC50 is commonly meant the midpoint of a concentration-inhibition curve. The low end stands for higher potency, the high end for lower potency.
